{"source": "the supplement of paper PMC11502859", "data": [{"system": "HEK293T", "assay": "median enrichment of reporter reads in eGFP-reduced (low/intermediate) vs eGFP-high sorted cells (eGFP-extension fusion abundance) (ratio); higher = stronger loss of eGFP-fusion protein abundance (more destabilising extension)", "values": [{"substance": "AAA [Ala03]", "median enrichment": 0.262}, {"substance": "AAAA [Ala04]", "median enrichment": 11.6}, {"substance": "AAAAA [Ala05]", "median enrichment": 4.35}, {"substance": "AAAAAA [Ala06]", "median enrichment": 8.25}, {"substance": "AAAAAAA [Ala07]", "median enrichment": 8.7}, {"substance": "AAAAAAAA [Ala08]", "median enrichment": 7.64}, {"substance": "AAAAAAAAA [Ala09]", "median enrichment": 8.59}, {"substance": "AAAAAAAAAA [Ala10]", "median enrichment": 8.89}, {"substance": "ACKNWFSSLSHFVIHL [Degron CL1]", "median enrichment": 8.24}, {"substance": "ACVARPDKHLQMAAAPTWDLPRRLEQKGLSLGWCFSSRVLGCMFCTASREGVSGGHHLWDTGSKGPVHSVISFLAPASPTSPR [TMEM141]", "median enrichment": 4.72}, {"substance": "ADLTPAQPPPPTSHSGLVLCLLFRTPLCPPKRQKKKKKKKSKKTSEKSAAKKWMSCNFSRDGAGGVCVPTGPGGPLRGGHAAR [PITX1]", "median enrichment": 10}, {"substance": "AESLGSDLAAWGESLGSVLAAWGAGIAQSMNGPTPAKAESLGPVSPAAHGTGIAHGVRSVHLQGLRPWAQSALLLRVQALHMV [WNT9A]", "median enrichment": 7.26}, {"substance": "AEWPGTCLKCLFPISLRDQEGILGMPLTSLLSRQQKWRGSQESALNCPPGWQGSLNRYLELGSGLFPCVLTTRASCSRAGIRG [F11R]", "median enrichment": 9.01}, {"substance": "AGAQPLPGMRLSADGETATQSFGLCVCVCVCVCVCAHPRVPVCVRILPPGAEVPWVSPLLCNGLLTGAAAPRGLCSGGTQCRM [FGFR3]", "median enrichment": 6.29}, {"substance": "AGRAPPCMMGKAILPLPPPCFCCLFGEGGGEVGAAAPHPSSLLICTHWPLQTRTSGASPSPPPPCLAAGVAMMGWSSLGQGVL [SCN1B]", "median enrichment": 3.87}, {"substance": "APLGLEFATGRILQRQVVPGPLLHPFSRRPCQRLHPVVNLVWRQRLRGWTSIVGQGLTLQGFCSWLWTPENPLLPSPNTRFLT [FAM110A]", "median enrichment": 5.18}, {"substance": "APRAPRQRSRDG [Degron KLHDC3]", "median enrichment": 10.8}, {"substance": "APSCLSRCDRARPKPGCTLLDWASLHCLGKSAEGPKLLRGLRLVPTPKLVCSLPLPARVSGPRSIENTTTMARWKGLLVPASS [MLST8]", "median enrichment": 5.58}, {"substance": "ASVLLRGAVCGEGLSWQGKHLRVTLTLGPLLFLKRLLATGKKNDLATLEETSAKEDVLASLSYFCSVVDLHIVVYLVWKCVSK [POLR1D]", "median enrichment": 7.42}, {"substance": "CAAQTEAQAQGRNLEQGHFGHSRTGERQLYFSLGQLQRVGQALMGSDCQSDAVGPRQRKAGRRGARTFSPHCPFPFSGEHRRL [C16orf58]", "median enrichment": 4.54}, {"substance": "CACPHPPSSLPSC [PADI1]", "median enrichment": 0.421}, {"substance": "CAGAFVAISL [MSI2]", "median enrichment": 8.28}, {"substance": "CALYLGSGQELHLGTNSC [ABCF2]", "median enrichment": 13.2}, {"substance": "CAPAERRLETGATASRVQQHSRHGSGRDSAWPRGTFPGQGPGGNWHGLVPLLCCILIPQPAPLGSDLSCPRAEPGGPEGEMNP [ANKRD13B]", "median enrichment": 6.25}, {"substance": "CAPWWERL [HTT]", "median enrichment": 1.22}, {"substance": "CAQDGPRPSMANNHVRHSTSGRCSDASAGAGTPNPWLQNRDPHPDRGSSAFEGFQAGLCGTEAQRGPGTWQRWGREEIQLPSL [CCDC86]", "median enrichment": 5.52}, {"substance": "CAQKS [LCE6A]", "median enrichment": 0.549}, {"substance": "CARAALEAPARGICPYPSWKDSWMW [HCRTR1]", "median enrichment": 10.8}, {"substance": "CAS [FAM118B]", "median enrichment": 0.212}, {"substance": "CASALEETTGSPICLEFLLLLLLVCFQISLCFLLCSRKVLQNHREKVHCYKGIPTHWRL [PAQR9]", "median enrichment": 25.9}, {"substance": "CASP8", "median enrichment": 22.5}, {"substance": "CASTRAVGDSCPHLCPRAASCLALPPHSPPGMGLLLPGSLKETAAC [FAM160B2]", "median enrichment": 6.35}, {"substance": "CATLSVGFFLEDSTLLPHVLSQLQS [CSTF1]", "median enrichment": 8.47}, {"substance": "CAWSAHRLSSAFALLRCYRTLAPDVCSFTGCLICLLHPTGPPTSSDVFLIMSAMCPILLHALPPFPTTAEWPGTCLKCLFPIS [F11R]", "median enrichment": 6.63}, {"substance": "CCC [Cys03]", "median enrichment": 1.07}, {"substance": "CCCC [Cys04]", "median enrichment": 2.06}, {"substance": "CCCCC [Cys05]", "median enrichment": 4.25}, {"substance": "CCCCCC [Cys06]", "median enrichment": 12.4}, {"substance": "CCCCCCC [Cys07]", "median enrichment": 9.39}, {"substance": "CCCCCCCC [Cys08]", "median enrichment": 8.63}, {"substance": "CCCCCCCCC [Cys09]", "median enrichment": 7.96}, {"substance": "CCCCCCCCCC [Cys10]", "median enrichment": 9.58}, {"substance": "CCP [RUBCNL]", "median enrichment": 0.512}, {"substance": "CCQDSCALRCK [MT1X]", "median enrichment": 0.374}]}]}
